According to patent US7951210B2, “Support-colouring means” (Doublet Luc, priority 2004, dated 2011):

Experiment: Inhibition of the oxidation of ABTS by NPE-hemoglobin conjugates (microtitration plate, H2O2)
Assay type: biochemical
Conditions: oxidation of ABTS 1 mM, H2O2 1 mM, sodium acetate buffer pH 5, before dialysis
Procedure: Bovine hemoglobin in aqueous solution (32 μM) is treated with different concentrations of 1-(2-nitrophenyl)ethyldiazoethane (NPE-diazo) in solution in DMSO at 20° C. for 1 h in darkness. The final concentration of DMSO should not exceed 5%. The NPE-diazo concentrations vary from 50 to 100 equivalents with respect to the hemoglobin. The coupling reaction is halted by addition of a 100 mM acetate buffer solution at pH 4.4 (1 equivalent with respect to NPE-diazo). The contact times vary from 10 to 30 min. The reaction mixture is subsequently dialyzed against water, between 4 and 20° C., between 1 and 16 hours, against 1000 volumes of water. The conjugate is stored at 20° C.
The percentage of inhibition of the oxidation of ABTS [diammonium salt of 2,2′-azinobis(3-ethylbenzothiazolinone-6-sulfonic acid), 1 mM] is determined before dialysis on 96-well microtitration plates (Costar, Corning Incorporated) in sodium acetate buffer, […], pH 5, in the presence of 1 mM of hydrogen peroxide. The number of molecules attached per hemoglobin molecule is determined by mass spectrometry (electrospray).

Row | Substance | Residual activity (%)
1 | Hb-100: Bovine hemoglobin treated with 100 equivalents of 1-(2-nitrophenyl)ethyldiazoethane (NPE-diazo); NPE-hemoglobin conjugate | 2.5%
2 | Hb-75: Bovine hemoglobin treated with 75 equivalents of 1-(2-nitrophenyl)ethyldiazoethane (NPE-diazo); NPE-hemoglobin conjugate | 5.4%
3 | Hb-50: Bovine hemoglobin treated with 50 equivalents of 1-(2-nitrophenyl)ethyldiazoethane (NPE-diazo); NPE-hemoglobin conjugate | 12.6%
4 | Native hemoglobin: Untreated bovine hemoglobin, oxidation catalyst used as 100% activity reference [reference compound] | 100%

Experiment: Restoration of the enzymatic activity (ABTS oxidation) after photolysis at 366 nm
Assay type: biochemical
Conditions: after irradiating for 30 min at 366 nm; ABTS 1 mM, H2O2 1 mM
Procedure: The oxidation catalyst is reactivated by irradiation of the solutions of the various conjugates (1 mg/ml) in sodium acetate buffer (25 mM, pH 4.4). Photolysis takes place at 366 nm (100 W UV lamp, 7 mW/cm^2 at a distance of 30 cm); the irradiation times vary from 5 to 30 min. This stage is advantageously carried out in the presence of 5 mM of 2-ethanolamine in order to trap possible cross reactions between photolysis products and hemoglobin.
The restoration of the enzymatic activity is determined in microtitration plates as described above in the presence of ABTS (1 mM) and H2O2 (1 mM).

Row | Substance | activity recovered after irradiation
5 | Hb-100: Bovine hemoglobin treated with 100 equivalents of 1-(2-nitrophenyl)ethyldiazoethane (NPE-diazo); NPE-hemoglobin conjugate | 16%
6 | Hb-75: Bovine hemoglobin treated with 75 equivalents of 1-(2-nitrophenyl)ethyldiazoethane (NPE-diazo); NPE-hemoglobin conjugate | 28%
7 | Hb-50: Bovine hemoglobin treated with 50 equivalents of 1-(2-nitrophenyl)ethyldiazoethane (NPE-diazo); NPE-hemoglobin conjugate | 57%
